# Assay results published in patent US20210002376A1 (UNIVERSIT T STUTTGART, published 2021).
# Where two headings read alike, the source gives them in different places.
# Legend:
# HER3-His [1] = target: T1, HER3-His (UniProt P21860 21-643); assay: simultaneous binding ELISA: coated EGFR-Fc, Db titrated, HER3-His 300 nM added, anti-His-HRP
# T1 construct: range 21-643; also called His-tagged HER3; second antigen
# EGFR-His = target: T2, EGFR-His (UniProt P00533 25-645); assay: ELISA, coated His-tagged EGFR ECD, anti-human Fc-HRP
# T2 construct: range 25-645; also called His-tagged EGFR
# HER3-His [2] = target: T1, HER3-His; assay: simultaneous binding ELISA: coated EGFR-Fc, Db titrated, HER3-His 300 nM added, anti-His-HRP; remark: listed apart in the source
# HER3-His [3] = target: T1, HER3-His; assay: ELISA, coated His-tagged HER3 ECD, anti-human Fc-HRP
# HER3 (on tumor cells) [4] = target: T3, HER3 (on tumor cells) (UniProt P21860 20-1342, limits assumed); assay: flow cytometry on SKBR-3 cells
# T3 construct: whole, on cells; also called HER3 on MCF-7, SKBR-3 (SKBR3) and FaDu cells
# HER3 (on tumor cells) [5] = target: T3, HER3 (on tumor cells); assay: flow cytometry on FaDu cells
# HER3 (on tumor cells) [6] = target: T3, HER3 (on tumor cells); assay: flow cytometry on MCF-7 cells
# HER3 (on tumor cells) [7] = target: T3, HER3 (on tumor cells); assay: flow cytometry on SKBR-3 cells; remark: listed apart in the source
# HER3 (on tumor cells) [8] = target: T3, HER3 (on tumor cells); assay: flow cytometry on FaDu cells; remark: listed apart in the source
# HER3 (on tumor cells) [9] = target: T3, HER3 (on tumor cells); assay: flow cytometry on MCF-7 cells; remark: listed apart in the source
# HER3-Fc fusion protein [10] = target: T4, HER3-Fc fusion protein (UniProt P21860 21-643); assay: ELISA, coated HER3-Fc, anti-human Fab-HRP
# T4 construct: range 21-643; Coated antigen in ELISA; not shown: Fc part of the fusion, not described
# EGFR-Fc fusion protein [11] = target: T5, EGFR-Fc fusion protein (UniProt P00533 25-645); assay: ELISA, coated EGFR-Fc, anti-human Fab-HRP
# T5 construct: range 25-645; Coated antigen in ELISA; not shown: Fc part of the fusion, not described
# HER3-His [12] = target: T1, HER3-His; assay: simultaneous binding ELISA: coated EGFR-Fc, Db titrated, HER3-His 300 nM added, anti-His-HRP; remark: listed apart in the source
# HER3 (on tumor cells) [13] = target: T3, HER3 (on tumor cells); assay: flow cytometry on HER3-positive MCF-7 cells
# EGFR-Fc fusion protein [14] = target: T5, EGFR-Fc fusion protein; assay: ELISA, coated EGFR-Fc, anti-human Fab-HRP; remark: listed apart in the source
# HER3-His [15] = target: T1, HER3-His; assay: simultaneous binding ELISA: coated EGFR-Fc, Db titrated, HER3-His 300 nM added, anti-His-HRP; remark: listed apart in the source
# HER3-Fc fusion protein [16] = target: T4, HER3-Fc fusion protein; assay: ELISA, coated HER3-Fc, anti-human Fab-HRP; remark: listed apart in the source
# HER3 (on tumor cells) [17] = target: T3, HER3 (on tumor cells); assay: flow cytometry on HER3-positive MCF-7 cells; remark: listed apart in the source
binder,measurement,setting,value
"Db3-43xhu225-MHD2-Fc (bispecific antibody, homodimeric Fc part) heavy: EVQLVESGGGLVQPGGSLRLSCAASGFSLTNYGVHWVRQAPGKGLEWLGVIWSGGNTDYNTPFTSRFTISRDNSKNTLYLQMNSLRAEDTAVYYCARALTYYDYEFAYWGQGTTVTVSSGGGGSQAGLTQPPAVSVAPGQTASITCGRDNIGSRSVHWYQQKPGQAPVLVVYDDSDRPAGIPERFSGSNYENTATLTISRVEAGDEADYYCQVWGITSDHVVFGGGTKLTVLASAELPPKVSVFVPPRDGFFGNPRKSKLICQATGFSPRQIQVSWLREGKQVGSGVTTDQVQAEAKESGPTTYKVTSTLTIKESDWLGQSMFTCRVDHRGLTFQQNASSMCVPDDKTHTCPPCPAPPVAGPSVFLFPPKPKDTLMISRTPEVTCVVVDVSHEDPEVKFNWYVDGVEVHNAKTKPREEQYNSTYRVVSVLTVLHQDWLNGKEYKCKVSNKGLPSSIEKTISKAKGQPREPQVYTLPPSRDELTKNQVSLTCLVKGFYPSDIAVEWESNGQPENNYKTTPPVLDSDGSFFLYSKLTVDKSRWQQGNVFSCSVMHEALHNHYTQKSLSLSPGK light: QVQLQQSGPGLVKPSQTLSLTCAISGDSVSSNRAAWNWIRQSPSRGLEWLGRTYYRSKWYNDYAQSLKSRITINPDTPKNQFSLQLNSVTPEDTAVYYCARDGQLGLDALDIWGQGTMVTVSSGGGGSDIQLTQSPSFLSASVGDRVTITCRASQSIGTNIHWYQQKPGKAPKLLIKYASESISGVPSRFSGSGSGTEFTLTISSLQPEDFATYYCQQNNNWPTTFGAGTKLEIKRTAELPPKVSVFVPPRDGFFGNPRKSKLICQATGFSPRQIQVSWLREGKQVGSGVTTDQVQAEAKESGPTTYKVTSTLTIKESDWLGQSMFTCRVDHRGLTFQQNASSMCVPD",EC50,HER3-His [1],1.9 nM
same,EC50,EGFR-His,0.23 nM
same,EC50,HER3-His [2],1.8 nM
same,EC50,HER3-His [3],0.34 nM
"3-43-IgG (antibody, V domains shown) VH: QVQLQQSGPGLVKPSQTLSLTCAISGDSVSSNRAAWNWIRQSPSRGLEWLGRTYYRSKWYNDYAQSLKSRITINPDTPKNQFSLQLNSVTPEDTAVYYCARDGQLGLDALDIWGQGTMVTVSS VL: QAGLTQPPAVSVAPGQTASITCGRDNIGSRSVHWYQQKPGQAPVLVVYDDSDRPAGIPERFSGSNYENTATLTISRVEAGDEADYYCQVWGITSDHVVFGGGTKLTVL",EC50,HER3 (on tumor cells) [4],0.022 nM
same,EC50,HER3 (on tumor cells) [5],0.003 nM
same,EC50,HER3 (on tumor cells) [6],0.021 nM
"3M6-IgG (antibody, V domains shown) VH: EVQLLESGGGLVQPGGSLRLSCAASGFTFSHYVMAWVRQAPGKGLEWVSSISSSGGWTLYADSVKGRFTISRDNSKNTLYLQMNSLRAEDTAVYYCTRGLKMATIFDYWGQGTLVTVSS VL: QSALTQPASVSGSPGQSITISCTGTSSDVGSYNVVSWYQQHPGKAPKLIIYEVSQRPSGVSNRFSGSKSGNTASLTISGLQTEDEADYYCSSYAGSSIFVIFGGGTKVTVL",EC50,HER3 (on tumor cells) [7],0.44 nM
same,EC50,HER3 (on tumor cells) [8],7.5 nM
same,EC50,HER3 (on tumor cells) [9],1.18 nM
same,EC50,HER3-Fc fusion protein [10],0.7 nM
"Db3M6xhu225-Ig (bispecific antibody, human IgG1, kappa, also called bispecific, tetravalent Diabody-Ig targeting EGFR (hu225) and HER3 (3M6); DbEGFRxHER3-Ig) heavy: EVQLVESGGGLVQPGGSLRLSCAASGFSLTNYGVHWVRQAPGKGLEWLGVIWSGGNTDYNTPFTSRFTISRDNSKNTLYLQMNSLRAEDTAVYYCARALTYYDYEFAYWGQGTTVTVSSGGGGSQSALTQPASVSGSPGQSITISCTGTSSDVGSYNVVSWYQQHPGKAPKLIIYEVSQRPSGVSNRFSGSKSGNTASLTISGLQTEDEADYYCSSYAGSSIFVIFGGGTKVTVLASTKGPSVFPLAPSSKSTSGGTAALGCLVKDYFPEPVTVSWNSGALTSGVHTFPAVLQSSGLYSLSSVVTVPSSSLGTQTYICNVNHKPSNTKVDKKVEPKSCDKTHTCPPCPAPPVAGPSVFLFPPKPKDTLMISRTPEVTCVVVDVSHEDPEVKFNWYVDGVEVHNAKTKPREEQYNSTYRVVSVLTVLHQDWLNGKEYKCKVSNKGLPSSIEKTISKAKGQPREPQVYTLPPSRDELTKNQVSLTCLVKGFYPSDIAVEWESNGQPENNYKTTPPVLDSDGSFFLYSKLTVDKSRWQQGNVFSCSVMHEALHNHYTQKSLSLSPGK light: EVQLLESGGGLVQPGGSLRLSCAASGFTFSHYVMAWVRQAPGKGLEWVSSISSSGGWTLYADSVKGRFTISRDNSKNTLYLQMNSLRAEDTAVYYCTRGLKMATIFDYWGQGTLVTVSSGGGGSDIQLTQSPSFLSASVGDRVTITCRASQSIGTNIHWYQQKPGKAPKLLIKYASESISGVPSRFSGSGSGTEFTLTISSLQPEDFATYYCQQNNNWPTTFGAGTKLEIKRTVAAPSVFIFPPSDEQLKSGTASVVCLLNNFYPREAKVQWKVDNALQSGNSQESVTEQDSKDSTYSLSSTLTLSKADYEKHKVYACEVTHQGLSSPVTKSFNRGEC",EC50,EGFR-Fc fusion protein [11],0.48 nM
same,EC50,HER3-His [12],1.3 nM
same,EC50,HER3-Fc fusion protein [10],1.4 nM
same,EC50,HER3 (on tumor cells) [13],1.54 nM
"Db3-43xhu225-Ig (bispecific antibody, human IgG1, kappa, also called bispecific, tetravalent Diabody-Ig targeting EGFR (hu225) and HER3 (3-43) using CH1 and CL; DbEGFRxHER3-Ig) heavy: EVQLVESGGGLVQPGGSLRLSCAASGFSLTNYGVHWVRQAPGKGLEWLGVIWSGGNTDYNTPFTSRFTISRDNSKNTLYLQMNSLRAEDTAVYYCARALTYYDYEFAYWGQGTTVTVSSGGGGSQAGLTQPPAVSVAPGQTASITCGRDNIGSRSVHWYQQKPGQAPVLVVYDDSDRPAGIPERFSGSNYENTATLTISRVEAGDEADYYCQVWGITSDHVVFGGGTKLTVLASTKGPSVFPLAPSSKSTSGGTAALGCLVKDYFPEPVTVSWNSGALTSGVHTFPAVLQSSGLYSLSSVVTVPSSSLGTQTYICNVNHKPSNTKVDKKVEPKSCDKTHTCPPCPAPPVAGPSVFLFPPKPKDTLMISRTPEVTCVVVDVSHEDPEVKFNWYVDGVEVHNAKTKPREEQYNSTYRVVSVLTVLHQDWLNGKEYKCKVSNKGLPSSIEKTISKAKGQPREPQVYTLPPSRDELTKNQVSLTCLVKGFYPSDIAVEWESNGQPENNYKTTPPVLDSDGSFFLYSKLTVDKSRWQQGNVFSCSVMHEALHNHYTQKSLSLSPGK light: QVQLQQSGPGLVKPSQTLSLTCAISGDSVSSNRAAWNWIRQSPSRGLEWLGRTYYRSKWYNDYAQSLKSRITINPDTPKNQFSLQLNSVTPEDTAVYYCARDGQLGLDALDIWGQGTMVTVSSGGGGSDIQLTQSPSFLSASVGDRVTITCRASQSIGTNIHWYQQKPGKAPKLLIKYASESISGVPSRFSGSGSGTEFTLTISSLQPEDFATYYCQQNNNWPTTFGAGTKLEIKRTVAAPSVFIFPPSDEQLKSGTASVVCLLNNFYPREAKVQWKVDNALQSGNSQESVTEQDSKDSTYSLSSTLTLSKADYEKHKVYACEVTHQGLSSPVTKSFNRGEC",EC50,EGFR-Fc fusion protein [14],0.43 nM
same,EC50,HER3-His [15],0.85 nM
same,EC50,HER3-Fc fusion protein [16],0.34 nM
same,EC50,HER3 (on tumor cells) [17],0.054 nM
